To fix the notation:
B1: CPXM2 (parent)
chain: TASTKNCMVGYDMGATRCDFTLSK
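Further: lentivirally expressed fusions sorted by FACS into six bins by GFP to DsRed ratio, PSI derived from sequencing read proportions per bin multiplied by bin number.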

The variants in the data set derive from B1. In words: protein stability index of a GFP-peptide fusion (GPS, HEK-293T) (PSI 1-6); higher = more stable. The settings on record: c terminus: a fixed tail appended.
TASTKNCMVGYDMGATRCDFTLPK [S23P]: the protein stability index amounted to 2.59.
Turning to TASTKNCMVGYDMGATRCDFTLLK [S23L], the protein stability index is 2.67.
The result for TASTKNCMVGYDMGATRCDFTLQK [S23Q] reads 2.26.
With TASTKNCMVGYDMGATRCDFTLHK [S23H] the figure was 2.2.
With TASTKNCMVGYDMGATRCDFTLRK [S23R], the protein stability index is 3.34.
Turning to TASTKNCMVGYDMGATRCDFTLIK [S23I], the protein stability index stood at 1.89.
Turning to TASTKNCMVGYDMGATRCDFTLTK [S23T], the protein stability index came out at 1.94.
As for TASTKNCMVGYDMGATRCDFTLFK [S23F], the protein stability index turned out to be 1.55.
With TASTKNCMVGYDMGATRCDFTLMK [S23M], the protein stability index stood at 2.
Turning to TASTKNCMVGYDMGATRCDFTLVK [S23V], the protein stability index stood at 2.3.
For TASTKNCMVGYDMGATRCDFTLKK [S23K], the protein stability index was 2.78.
With TASTKNCMVGYDMGATRCDFTLWK [S23W] the figure was 1.86.
Regarding TASTKNCMVGYDMGATRCDFTLCK [S23C], the protein stability index is 1.46.
The result for TASTKNCMVGYDMGATRCDFTLEK [S23E] reads 2.45; that for TASTKNCMVGYDMGATRCDFTLDK [S23D], 2.55.
Consider TASTKNCMVGYDMGATRCDFTLGK [S23G], for which the protein stability index came out at 2.45.
With TASTKNCMVGYDMGATRCDFTLAK [S23A] the figure was 3.47; with TASTKNCMVGYDMGATRCDFTLNK [S23N], 2.6.
The result for TASTKNCMVGYDMGATRCDFTLYK [S23Y] reads 2.01; that for TASTKNCMVGYDMGATRCPFTLSK [D19P], 2.77; that for TASTKNCMVGYDMGATRCWFTLSK [D19W], 2.24.
For TASTKNCMVGYDMGATRCQFTLSK [D19Q], the protein stability index came to 1.84.
As for TASTKNCMVGYDMGATRCYFTLSK [D19Y], the protein stability index turned out to be 2.36.
The result for TASTKNCMVGYDMGATRCVFTLSK [D19V] reads 1.78.
With TASTKNCMVGYDMGATRCSFTLSK [D19S] the figure was 2.08; with TASTKNCMVGYDMGATRCRFTLSK [D19R], 2.9; with TASTKNCMVGYDMGATRCTFTLSK [D19T], 2.36.
As for TASTKNCMVGYDMGATRCDFTLSG [K24G], the protein stability index came out at 1.78.
For the variant TASTKNCMVGYDMGATRCDFTLSF [K24F], the protein stability index turned out to be 4.01.
With TASTKNCMVGYDMGATRCDFTLSP [K24P] the figure was 2.35; with TASTKNCMVGYDMGATRCDFTLSC [K24C], 2.38.
TASTKNCMVGYDMGATRCDFTLSY [K24Y]: the protein stability index was found to be 2.73.
The result for TASTKNCMVGYDMGATRCDFTLSV [K24V] reads 2.78; that for TASTKNCMVGYDMGATRCDFTLST [K24T], 1.62.
With TASTKNCMVGYDMGATRCDFTLSA [K24A] the figure was 2.43; with TASTKNCMVGYDMGATRCDFTLSR [K24R], 1.56.
With TASTKNCMVGYDMGATRCDFTLSS [K24S] the figure was 2.22.
On to TASTKNCMVGYDMGATRCDFTLSD [K24D], for which the protein stability index is 2.37.
As to TASTKNCMVGYDMGATRCDFTLSE [K24E], the protein stability index was 2.62.
With TASTKNCMVGYDMGATRCDFTLSM [K24M] the figure was 2.85; with TASTKNCMVGYDMGATRCDFTLSN [K24N], 2.03; with TASTKNCMVGYDMGATRCDFTLSH [K24H], 2.87.
Take TASTKNCMVGYDMGATRCDFTLSQ [K24Q]: the protein stability index turned out to be 1.82.
With TASTKNCMVGYDMGATRCDFTLSI [K24I] the figure was 3.76.
As to TASTKNCMVGYDMGATRCDFTLSL [K24L], the protein stability index came to 1.52.
With TASTKNCMVGYDMGATRCDFTQSK [L22Q] the figure was 2.96; with TASTKNCMVGYDMGATRCDFTVSK [L22V], 2.52.
The result for TASTKNCMVGYDMGATRCDFTFSK [L22F] reads 2.12; that for TASTKNCMVGYDMGATRCDFTHSK [L22H], 3.06.
TASTKNCMVGYDMGATRCDFTKSK [L22K]: the protein stability index is 3.36.
With TASTKNCMVGYDMGATRCDFTDSK [L22D] the figure was 3.58; with TASTKNCMVGYDMGATRCDFTNSK [L22N], 3.41; with TASTKNCMVGYDMGATRCDFTYSK [L22Y], 2.26.
Take TASTKNCMVGYDMGATRCDFTGSK [L22G]: the protein stability index came out at 3.48.
On to TASTKNCMVGYDMGATRCDFTWSK [L22W], for which the protein stability index came to 1.74.
With TASTKNCMVGYDMGATRCDFTPSK [L22P], the protein stability index was 2.48.
TASTKNCMVGYDMGATRCDFTISK [L22I]: the protein stability index is 1.88.
On to TASTKNCMVGYDMGATRCDFTTSK [L22T], for which the protein stability index was 3.23.
Consider TASTKNCMVGYDMGATRCDFTSSK [L22S], for which the protein stability index was found to be 2.41.
TASTKNCMVGYDMGATRCDFTRSK [L22R]: the protein stability index was determined as 2.35.
As to TASTKNCMVGYDMGATRCDFTMSK [L22M], the protein stability index was determined as 2.39.
With TASTKNCMVGYDMGATRCDFTCSK [L22C], the protein stability index amounted to 2.42.
As for TASTKNCMVGYDMGATRCDFTESK [L22E], the protein stability index came out at 3.07.
With TASTKNCMVGYDMGATRCDFTASK [L22A] the figure was 2.64; with TASTKNCMVGYDMGATRCDFLLSK [T21L], 2.52.
With TASTKNCMVGYDMGATRCDFCLSK [T21C] the figure was 1.57; with TASTKNCMVGYDMGATRCDFFLSK [T21F], 2.11; with TASTKNCMVGYDMGATRCDFDLSK [T21D], 2.52.
For TASTKNCMVGYDMGATRCDFWLSK [T21W], the protein stability index stood at 1.67.
On to TASTKNCMVGYDMGATRCDFYLSK [T21Y], for which the protein stability index was 1.91.
With TASTKNCMVGYDMGATRCDFHLSK [T21H], the protein stability index came to 3.16.
As to TASTKNCMVGYDMGATRCDFNLSK [T21N], the protein stability index amounted to 3.06.
The result for TASTKNCMVGYDMGATRCDFMLSK [T21M] reads 1.95.
The result for TASTKNCMVGYDMGATRCDFQLSK [T21Q] reads 3.15; that for TASTKNCMVGYDMGATRCDFPLSK [T21P], 2.71; that for TASTKNCMVGYDMGATRCDFELSK [T21E], 3.16.
TASTKNCMVGYDMGATRCDFVLSK [T21V]: the protein stability index stood at 2.48.
With TASTKNCMVGYDMGATRCDFSLSK [T21S] the figure was 2.21; with TASTKNCMVGYDMGATRCDFRLSK [T21R], 2.89.
On to TASTKNCMVGYDMGATRCDFALSK [T21A], for which the protein stability index stood at 2.37.
With TASTKNCMVGYDMGATRCDFILSK [T21I] the figure was 2.02; with TASTKNCMVGYDMGATRCDFGLSK [T21G], 2.48; with TASTKNCMVGYDMGATRCDFKLSK [T21K], 3.35.
On to TASTKNCMVGYDMGATRCDMTLSK [F20M], for which the protein stability index was found to be 2.78.
The result for TASTKNCMVGYDMGATRCDDTLSK [F20D] reads 3.85; that for TASTKNCMVGYDMGATRCDCTLSK [F20C], 2.52.
With TASTKNCMVGYDMGATRCDWTLSK [F20W], the protein stability index came to 2.28.
Consider TASTKNCMVGYDMGATRCDQTLSK [F20Q], for which the protein stability index came to 3.05.
TASTKNCMVGYDMGATRCDYTLSK [F20Y]: the protein stability index is 2.13.
With TASTKNCMVGYDMGATRCDGTLSK [F20G] the figure was 3.5; with TASTKNCMVGYDMGATRCDSTLSK [F20S], 2.99; with TASTKNCMVGYDMGATRCDNTLSK [F20N], 2.98.
With TASTKNCMVGYDMGATRCDLTLSK [F20L] the figure was 2.42; with TASTKNCMVGYDMGATRCDPTLSK [F20P], 4.12.

The record behind these values is the supplement of paper PMC10567573.
